From publication doi:10.1101/2024.09.13.612941

T1: SMARCAD1 (human, UniProt Q9H4L7-2 1-1028, V974A)
T1 sequence: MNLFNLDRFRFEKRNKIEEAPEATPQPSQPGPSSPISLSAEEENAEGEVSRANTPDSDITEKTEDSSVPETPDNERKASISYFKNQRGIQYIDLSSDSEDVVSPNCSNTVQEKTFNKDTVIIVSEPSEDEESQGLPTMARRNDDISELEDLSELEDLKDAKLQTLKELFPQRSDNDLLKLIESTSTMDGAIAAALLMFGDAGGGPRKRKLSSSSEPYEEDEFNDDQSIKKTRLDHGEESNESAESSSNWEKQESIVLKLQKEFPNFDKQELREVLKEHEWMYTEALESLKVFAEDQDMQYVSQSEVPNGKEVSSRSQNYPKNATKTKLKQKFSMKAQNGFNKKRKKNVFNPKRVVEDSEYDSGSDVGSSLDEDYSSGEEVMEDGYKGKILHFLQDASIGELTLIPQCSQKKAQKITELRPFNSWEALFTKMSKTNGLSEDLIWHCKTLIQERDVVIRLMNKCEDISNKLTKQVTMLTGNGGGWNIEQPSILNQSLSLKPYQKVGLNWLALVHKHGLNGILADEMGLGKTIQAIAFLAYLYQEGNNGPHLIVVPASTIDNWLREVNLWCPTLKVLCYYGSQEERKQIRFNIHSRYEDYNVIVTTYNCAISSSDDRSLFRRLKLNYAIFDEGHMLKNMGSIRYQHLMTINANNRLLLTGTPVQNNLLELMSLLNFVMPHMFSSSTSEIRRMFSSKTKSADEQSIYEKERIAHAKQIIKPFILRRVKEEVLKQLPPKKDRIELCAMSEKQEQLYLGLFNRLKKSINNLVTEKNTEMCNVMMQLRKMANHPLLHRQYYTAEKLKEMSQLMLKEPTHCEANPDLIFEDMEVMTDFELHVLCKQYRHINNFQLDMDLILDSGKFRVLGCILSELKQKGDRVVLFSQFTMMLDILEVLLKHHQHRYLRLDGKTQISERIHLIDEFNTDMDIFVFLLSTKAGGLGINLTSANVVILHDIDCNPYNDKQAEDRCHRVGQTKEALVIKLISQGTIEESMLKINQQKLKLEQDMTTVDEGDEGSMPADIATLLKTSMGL

B1: dsDNAshort (dsDNA)
DNA 1: GCAGCTGGCACGACAGGTATGAATC
DNA 2: GATTCATACCTGTCGTGCCAGCTGC
B2: DNA-RNA hybrid (DNA:RNA)
RNA: GCAGCUGGCACGACAGGUAUGAAUC
DNA: GATTCATACCTGTCGTGCCAGCTGC
B3: R-loopshort (mixed)
DNA 1: GCCAGGGACGAGGTGAACCTGCAGGTGGGCGGCTACTACTTAGATGTCATCCGAGGCTTATTGGTAGAATTCGGCAGCGTCATGCGACGGC
DNA 2: GCCGTCGCATGACGCTGCCGAATTCTACCACGCGATTCATACCTGTCGTGCCAGCTGCTTTGCCCACCTGCAGGTTCACCTCGTCCCTGGC
RNA: GCAGCUGGCACGACAGGUAUGAAUC

Legend:
SMARCAD1 [1] = biological target: T1, SMARCAD1; test: fluorescence polarization
SMARCAD1 [2] = biological target: T1, SMARCAD1; test: fluorescence polarization; remark: listed apart in the source

| Binder | apparent K (half saturation) (SMARCAD1 [1]) | binding result (SMARCAD1 [2]) |
| --- | --- | --- |
| B1 | 39.5 ± 2 nM |  |
| B2 |  | binds |
| B3 | 26.1 ± 1.4 nM |  |
